The record followed here is US20010044102.

This series deals with c-Myc (pM21 expression), P01106-1. Put plainly: cell_activity. To be noted: luciferase, NIH 3T3, SV40 minimal promoter.
c-Myc (pM21 expression), P01106-1, sequence (P01106 16-454): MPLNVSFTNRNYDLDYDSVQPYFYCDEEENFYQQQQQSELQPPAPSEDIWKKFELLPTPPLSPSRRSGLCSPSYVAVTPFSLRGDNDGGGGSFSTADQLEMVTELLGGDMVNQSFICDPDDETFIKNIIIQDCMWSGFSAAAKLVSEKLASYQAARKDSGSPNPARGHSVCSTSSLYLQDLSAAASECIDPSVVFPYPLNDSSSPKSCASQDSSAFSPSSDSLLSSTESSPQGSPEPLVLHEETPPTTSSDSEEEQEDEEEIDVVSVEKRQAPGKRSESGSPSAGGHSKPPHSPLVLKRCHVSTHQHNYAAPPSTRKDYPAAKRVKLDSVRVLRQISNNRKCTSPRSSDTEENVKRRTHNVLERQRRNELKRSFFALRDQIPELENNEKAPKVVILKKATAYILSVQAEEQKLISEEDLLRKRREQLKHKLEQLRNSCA

For the substance “cdc25A 2.5 kb KpnI/HindIII fragment (MB2+MB3) luciferase reporter”, the activity is 5 fold.
